B1: Hairpin Ribozyme (parent)
chain: GUCCUCUUUCACGUGCGCGUGAAAGAGAGAAGUGAACCAGAGAAACACACGUUGUGGUAUAUUACCUGGUA

Variants of: B1
Assay: self-cleavage, relative activity (ratio to wild type); higher = more cleavage; co-transcriptional
U9A U70A showed a self-cleavage of 0.581.
In the case of U9A U70C, the self-cleavage is reported as 0.719.
Variant U9C A11G has a self-cleavage of 0.692.
Variant U9C A23C has a self-cleavage of 0.862.
With U9C A23G the self-cleavage was 0.814.
Work on U9C A26C yielded a self-cleavage of 0.426.
U9C A26G gave a self-cleavage of 0.747.
Variant U9C A28C has a self-cleavage of 0.394.
In the case of U9C A30G, the self-cleavage is reported as 0.336.
U9C A35C gave a self-cleavage of 0.602.
For U9C A35G, the self-cleavage was 0.688.
In the case of U9C A36C, the self-cleavage is reported as 0.491.
Variant U9C A41U has a self-cleavage of 0.966.
U9C A43C showed a self-cleavage of 0.102.
Work on U9C A43G yielded a self-cleavage of 0.0922.
With U9C A44G the self-cleavage was 0.19.
U9C A45C gave a self-cleavage of 0.121.
For U9C A45U, the self-cleavage was 0.0912.
For U9C A47U, the self-cleavage was 0.178.
U9C A49C showed a self-cleavage of 0.204.
For U9C A49G, the self-cleavage was 0.21.
U9C A61C showed a self-cleavage of 0.183.
U9C A71C gave a self-cleavage of 1.24.
In the case of U9C A71G, the self-cleavage is reported as 0.933.
With U9C C10G the self-cleavage was 0.582.
With U9C C16A the self-cleavage was 0.761.
U9C C18G gave a self-cleavage of 0.56.
Variant U9C C38G has a self-cleavage of 0.145.
Work on U9C C46G yielded a self-cleavage of 0.167.
In the case of U9C C48G, the self-cleavage is reported as 0.145.
In the case of U9C C48U, the self-cleavage is reported as 0.0794.
For U9C C65A, the self-cleavage was 0.945.
With U9C C65G the self-cleavage was 0.159.
Variant U9C C66G has a self-cleavage of 0.202.
In the case of U9C G15U, the self-cleavage is reported as 0.879.
In the case of U9C G17A, the self-cleavage is reported as 0.805.
For U9C G17C, the self-cleavage was 0.647.
U9C G19C showed a self-cleavage of 0.485.
Work on U9C G19U yielded a self-cleavage of 0.617.
With U9C G25U the self-cleavage was 0.386.
For U9C G29C, the self-cleavage was 0.1.
Variant U9C G29U has a self-cleavage of 0.179.
For U9C G32A, the self-cleavage was 0.125.
Variant U9C G32C has a self-cleavage of 0.0478.
U9C G34U showed a self-cleavage of 1.09.
In the case of U9C G40A, the self-cleavage is reported as 0.313.
Variant U9C G42A has a self-cleavage of 0.081.
U9C G42U showed a self-cleavage of 0.34.
For U9C G54U, the self-cleavage was 0.539.
For U9C G56C, the self-cleavage was 0.158.
For U9C G56U, the self-cleavage was 0.0494.
In the case of U9C G57U, the self-cleavage is reported as 0.185.
For U9C G68C, the self-cleavage was 0.108.
Variant U9C G69U has a self-cleavage of 0.256.
In the case of U9C U14A, the self-cleavage is reported as 0.781.
For U9C U20A, the self-cleavage was 0.692.
With U9C U20C the self-cleavage was 0.885.
In the case of U9C U33A, the self-cleavage is reported as 0.0961.
Variant U9C U33G has a self-cleavage of 0.154.
For U9C U52C, the self-cleavage was 0.6.
For U9C U52G, the self-cleavage was 0.74.
For U9C U53A, the self-cleavage was 1.19.
For U9C U55A, the self-cleavage was 0.299.
With U9C U55C the self-cleavage was 0.134.
With U9C U58G the self-cleavage was 0.729.
U9C U60A showed a self-cleavage of 0.769.
Variant U9C U62C has a self-cleavage of 0.143.
U9C U63C showed a self-cleavage of 0.133.
U9C U67A showed a self-cleavage of 0.174.
In the case of U9C U70A, the self-cleavage is reported as 0.669.
Variant U9G A11C has a self-cleavage of 0.416.
Work on U9G A23G yielded a self-cleavage of 0.72.
U9G A24C gave a self-cleavage of 0.318.
Variant U9G A26U has a self-cleavage of 0.477.
Variant U9G A30C has a self-cleavage of 0.206.
For U9G A30U, the self-cleavage was 0.0546.
U9G A31C showed a self-cleavage of 0.0438.
Work on U9G A31G yielded a self-cleavage of 0.549.
In the case of U9G A35U, the self-cleavage is reported as 0.631.
For U9G A39G, the self-cleavage was 0.206.
With U9G A39U the self-cleavage was 0.158.
Variant U9G A41C has a self-cleavage of 0.693.
In the case of U9G A43C, the self-cleavage is reported as 0.0922.
With U9G A44C the self-cleavage was 0.0667.
Work on U9G A44G yielded a self-cleavage of 0.129.
In the case of U9G A47C, the self-cleavage is reported as 0.406.
Variant U9G A47U has a self-cleavage of 0.0873.
For U9G A59G, the self-cleavage was 0.241.
For U9G A61C, the self-cleavage was 0.115.
In the case of U9G A64U, the self-cleavage is reported as 0.164.
U9G C10G gave a self-cleavage of 0.375.
U9G C12U gave a self-cleavage of 0.664.
Work on U9G C18G yielded a self-cleavage of 0.801.
U9G C37U showed a self-cleavage of 0.5.
For U9G C65A, the self-cleavage was 0.609.
With U9G C66U the self-cleavage was 0.429.
U9G G13A gave a self-cleavage of 0.536.
U9G G13U showed a self-cleavage of 0.678.
For U9G G17C, the self-cleavage was 0.379.
With U9G G19U the self-cleavage was 0.546.
Variant U9G G21A has a self-cleavage of 0.554.
In the case of U9G G27A, the self-cleavage is reported as 0.332.
Variant U9G G27U has a self-cleavage of 0.171.
U9G G32A showed a self-cleavage of 0.128.
U9G G34U showed a self-cleavage of 1.15.
U9G G42A gave a self-cleavage of 0.109.
In the case of U9G G42C, the self-cleavage is reported as 0.239.
With U9G G51C the self-cleavage was 0.614.
U9G G54C showed a self-cleavage of 0.341.
For U9G G54U, the self-cleavage was 0.52.
Work on U9G G56A yielded a self-cleavage of 0.18.
With U9G G56C the self-cleavage was 0.0826.
For U9G G57U, the self-cleavage was 0.379.
U9G G68A gave a self-cleavage of 0.247.
Work on U9G U14A yielded a self-cleavage of 0.612.
Work on U9G U20A yielded a self-cleavage of 0.531.
With U9G U20C the self-cleavage was 0.682.
Variant U9G U33G has a self-cleavage of 0.145.
For U9G U53A, the self-cleavage was 0.672.
For U9G U53C, the self-cleavage was 0.736.
U9G U55G showed a self-cleavage of 0.0748.
U9G U58A showed a self-cleavage of 0.549.
U9G U62C gave a self-cleavage of 0.323.
U9G U63C gave a self-cleavage of 0.094.
Variant U9G U63G has a self-cleavage of 0.206.
Variant U9G U67G has a self-cleavage of 0.279.
Variant U9G U70A has a self-cleavage of 0.812.
For U9G U70C, the self-cleavage was 0.72.
In the case of C10A, the self-cleavage is reported as 0.722.
Work on C10A A11U yielded a self-cleavage of 0.41.
For C10A A26G, the self-cleavage was 0.663.
For C10A A28G, the self-cleavage was 1.09.
For C10A A28U, the self-cleavage was 0.483.
For C10A A31G, the self-cleavage was 0.533.
C10A A31U gave a self-cleavage of 0.112.
For C10A A39C, the self-cleavage was 0.463.
C10A A41G showed a self-cleavage of 0.694.
Variant C10A A43C has a self-cleavage of 0.0904.
Work on C10A A43G yielded a self-cleavage of 0.132.
In the case of C10A A44C, the self-cleavage is reported as 0.141.
Work on C10A A44U yielded a self-cleavage of 0.139.
With C10A A47C the self-cleavage was 0.334.
C10A A49U gave a self-cleavage of 0.172.
C10A A59C gave a self-cleavage of 0.192.
In the case of C10A A59G, the self-cleavage is reported as 0.149.
With C10A A64C the self-cleavage was 0.185.
In the case of C10A A71C, the self-cleavage is reported as 1.16.
Work on C10A A71G yielded a self-cleavage of 0.915.
C10A C16A showed a self-cleavage of 0.907.
Work on C10A C16G yielded a self-cleavage of 0.527.
Work on C10A C18A yielded a self-cleavage of 0.708.
C10A C18G gave a self-cleavage of 0.791.
For C10A C18U, the self-cleavage was 0.809.
With C10A C37A the self-cleavage was 0.271.
For C10A C50U, the self-cleavage was 0.349.
With C10A C65A the self-cleavage was 0.556.
C10A C65G gave a self-cleavage of 0.388.
In the case of C10A G13A, the self-cleavage is reported as 0.501.
For C10A G13C, the self-cleavage was 0.411.
Work on C10A G17C yielded a self-cleavage of 0.489.
C10A G19A gave a self-cleavage of 0.761.
C10A G19C gave a self-cleavage of 0.509.
C10A G32A gave a self-cleavage of 0.161.
For C10A G40A, the self-cleavage was 0.219.
C10A G40U showed a self-cleavage of 0.141.
C10A G42C showed a self-cleavage of 0.235.
C10A G42U gave a self-cleavage of 0.268.

Source: the RNAGym collection of RNA variant scans (doi:10.7554/elife.80360)
